Data published in patent US20250230251A1 (Bristol-Myers Squibb, published 2025).
Substitutions are numbered along the chain they refer to. Values belong to the binder of their own block, whether it stands above or below them.

Key:
[1] = target: T1, huIL-18Rβ-HisAvi (human, UniProt O95256 20-356, biotinylated in the Octet blocking assay); assay: SPR T200, mAb on anti-hFc, 37C, pH 7; control
T1 construct: Soluble analyte in all SPR runs; captured on streptavidin sensors in the Octet assay; also called human IL-18Rβ; human IL-18Rβ-Avi-His
T1 sequence: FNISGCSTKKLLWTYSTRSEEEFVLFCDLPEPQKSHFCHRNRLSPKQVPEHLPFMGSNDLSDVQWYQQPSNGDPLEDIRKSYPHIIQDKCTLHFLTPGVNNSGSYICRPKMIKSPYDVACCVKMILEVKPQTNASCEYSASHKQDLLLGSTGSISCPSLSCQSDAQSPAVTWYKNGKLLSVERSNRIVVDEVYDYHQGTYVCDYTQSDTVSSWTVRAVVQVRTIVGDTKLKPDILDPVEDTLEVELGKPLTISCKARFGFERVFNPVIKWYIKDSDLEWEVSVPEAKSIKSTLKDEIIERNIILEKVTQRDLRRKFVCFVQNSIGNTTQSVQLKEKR

[2] = target: T2, human IL-18Rβ on cells (human, UniProt O95256 20-599); assay: cell-based or functional assay
T2 sequence: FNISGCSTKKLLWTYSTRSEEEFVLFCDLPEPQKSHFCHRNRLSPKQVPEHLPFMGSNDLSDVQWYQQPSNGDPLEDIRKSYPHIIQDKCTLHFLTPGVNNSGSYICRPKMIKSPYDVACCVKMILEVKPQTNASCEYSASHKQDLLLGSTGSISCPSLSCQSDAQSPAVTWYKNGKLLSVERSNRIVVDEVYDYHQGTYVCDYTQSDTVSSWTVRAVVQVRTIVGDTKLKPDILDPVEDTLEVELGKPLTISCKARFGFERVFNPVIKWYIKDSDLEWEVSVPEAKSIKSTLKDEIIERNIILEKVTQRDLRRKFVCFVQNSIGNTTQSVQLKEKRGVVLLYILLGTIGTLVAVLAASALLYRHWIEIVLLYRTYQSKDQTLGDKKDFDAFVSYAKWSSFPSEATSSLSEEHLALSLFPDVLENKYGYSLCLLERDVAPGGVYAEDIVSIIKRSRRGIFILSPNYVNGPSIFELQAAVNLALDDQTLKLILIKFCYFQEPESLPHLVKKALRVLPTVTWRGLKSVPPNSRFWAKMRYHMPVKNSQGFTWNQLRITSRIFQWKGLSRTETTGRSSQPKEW

[3] = target: T2, human IL-18Rβ on cells; assay: cell-based or functional assay; remark: listed apart in the source
[4] = target: T2, human IL-18Rβ on cells; assay: cell-based or functional assay; remark: listed apart in the source
[5] = target: T3, cynomolgus monkey IL-18Rβ on cells (cynomolgus monkey, UniProt A0A7N9D6S0 20-598); assay: cell-based or functional assay
T3 sequence: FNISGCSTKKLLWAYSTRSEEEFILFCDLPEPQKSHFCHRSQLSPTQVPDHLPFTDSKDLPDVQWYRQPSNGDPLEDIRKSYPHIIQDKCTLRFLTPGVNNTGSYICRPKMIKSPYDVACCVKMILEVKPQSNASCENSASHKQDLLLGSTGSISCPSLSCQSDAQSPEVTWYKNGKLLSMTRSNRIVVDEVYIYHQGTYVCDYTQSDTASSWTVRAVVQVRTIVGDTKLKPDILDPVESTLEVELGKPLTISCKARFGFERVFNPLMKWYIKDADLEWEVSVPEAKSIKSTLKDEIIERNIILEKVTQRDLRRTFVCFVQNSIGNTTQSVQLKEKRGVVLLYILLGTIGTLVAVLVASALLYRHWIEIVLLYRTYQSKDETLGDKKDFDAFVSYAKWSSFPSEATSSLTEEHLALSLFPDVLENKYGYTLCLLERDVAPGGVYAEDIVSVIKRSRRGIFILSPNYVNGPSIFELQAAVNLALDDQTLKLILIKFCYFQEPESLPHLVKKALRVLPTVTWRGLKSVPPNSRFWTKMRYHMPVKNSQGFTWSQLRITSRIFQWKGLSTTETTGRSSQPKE

[6] = target: T1, huIL-18Rβ-HisAvi; assay: SPR T200, pH 7; sample 2 w 40C
[7] = target: T1, huIL-18Rβ-HisAvi; assay: SPR T200, pH 7; sample 4 w 40C
[8] = target: T1, huIL-18Rβ-HisAvi; assay: SPR T200, pH 7; control

apparent Kd (pooled screen) [1]: 0.18 nM
apparent koff (pooled screen) [1]: 5.2e-05 s⁻¹
apparent kon (pooled screen) [1]: 280000 M⁻¹ s⁻¹
B1: P20 (antibody, human IgG1, kappa)
heavy: QVQLQQSGPGLVKPSETLSLTCTVSGGSINNYYWSWIRQPPGKGLEWIGYIFYSGTTNYNPSLKSRVTISVDTSKNQFSLKLSSVTAADTAVYYCARDVGIAARNSYYYVMDVWGQGTTVTVSSASTKGPSVFPLAPSSKSTSGGTAALGCLVKDYFPEPVTVSWNSGALTSGVHTFPAVLQSSGLYSLSSVVTVPSSSLGTQTYICNVNHKPSNTKVDKRVEPKSCDKTHTCPPCPAPEAEGAPSVFLFPPKPKDTLMISRTPEVTCVVVDVSHEDPEVKFNWYVDGVEVHNAKTKPREEQYNSTYRVVSVLTVLHQDWLNGKEYKCKVSNKALPAPIEKTISKAKGQPREPQVYTLPPSREEMTKNQVSLTCLVKGFYPSDIAVEWESNGQPENNYKTTPPVLDSDGSFFLYSKLTVDKSRWQQGNVFSCSVMHEALHNHYTQKSLSLSPG
light: AIQLTQSPSSLSASVGDRVTITCRASQGISSALAWYQQKPGKAPKFLIYDASSLESGVPSRFSGSGSGTDFTLTISSLQPEDFATYYCQQFNSYPITFGQGTRLEIKRTVAAPSVFIFPPSDEQLKSGTASVVCLLNNFYPREAKVQWKVDNALQSGNSQESVTEQDSKDSTYSLSSTLTLSKADYEKHKVYACEVTHQGLSSPVTKSFNRGEC
notes: Human IgG

Average IC50, LPS+IL-12 dependent IFNg production, human whole blood [2]: 1.04 nM
IC50, IL-18-mediated IFNg release, KG-1 cells, Average [3]: 2.01 nM
IC50, IL-18-mediated IFNg release, KG-1 cells, Exp. #1 [3]: 0.96 nM
IC50, IL-18-mediated IFNg release, KG-1 cells, Exp. #2 [3]: 2.1 nM
IC50, IL-18-mediated IFNg release, KG-1 cells, Exp. #3 [3]: 1.46 nM
IC50, IL-18-mediated IFNg release, KG-1 cells, Exp. #4 [3]: 1.2 nM
IC50, IL-18-mediated IFNg release, KG-1 cells, Exp. #5 [3]: 2.94 nM
IC50, IL-18-mediated IFNg release, KG-1 cells, Exp. #6 [3]: 2.8 nM
IC50, IL-18-mediated IFNg release, KG-1 cells, Exp. #7 [3]: 2.6 nM
IC50, IFNg, human whole blood LPS+IL-12, Average [4]: 1.6 nM
IC50, IFNg, human whole blood LPS+IL-12, donor C163 [4]: 1.1 nM
IC50, IFNg, human whole blood LPS+IL-12, donor C175 [4]: 1.48 nM
IC50, IFNg, human whole blood LPS+IL-12, donor C177 [4]: 0.47 nM
IC50, IFNg, human whole blood LPS+IL-12, donor C198 [4]: 4.9 nM
IC50, IFNg, human whole blood LPS+IL-12, donor C200 [4]: 2.55 nM
IC50, IFNg, human whole blood LPS+IL-12, donor C205 [4]: 1.56 nM
IC50, IFNg, human whole blood LPS+IL-12, donor C215 [4]: 1.54 nM
IC50, IFNg, human whole blood LPS+IL-12, donor C223 [4]: 0.83 nM
IC50, IFNg, human whole blood LPS+IL-12, donor C229 [4]: 1.3 nM
IC50, IFNg, human whole blood LPS+IL-12, donor C238 [4]: 0.57 nM
IC50, IFNg, human whole blood LPS+IL-12, donor C241 [4]: 1.2 nM
IC50, IFNg, human whole blood LPS+IL-12, donor C245 [4]: 1.22 nM
IC50, IFNg, human whole blood LPS+IL-12, donor C251 [4]: 1.7 nM
IC50, IFNg, human whole blood LPS+IL-12, donor C256 [4]: 1.38 nM
IC50, IFNg, human whole blood LPS+IL-12, donor C257 [4]: 2.22 nM
IC50, IFNg, cyno whole blood IL-18+IL-12, Average [5]: 4.3 nM
IC50, IFNg, cyno whole blood IL-18+IL-12, donor B7619 (f) [5]: 5.1 nM
IC50, IFNg, cyno whole blood IL-18+IL-12, donor B8476 (m) [5]: 3.3 nM
IC50, IFNg, cyno whole blood IL-18+IL-12, donor B9301 (f) [5]: 4.7 nM
IC50, IFNg, cyno whole blood IL-18+IL-12, donor B9313 (m) [5]: 2.4 nM
IC50, IFNg, cyno whole blood IL-18+IL-12, donor B9447 (m) [5]: 5.1 nM
IC50, IFNg, cyno whole blood IL-18+IL-12, donor B9496 (m) [5]: 1.9 nM
IC50, IFNg, cyno whole blood IL-18+IL-12, donor B21333 (f) [5]: 1.8 nM
IC50, IFNg, cyno whole blood IL-18+IL-12, donor B21374 (f) [5]: 2.5 nM
IC50, IFNg, cyno whole blood IL-18+IL-12, donor B21394 (f) [5]: 6 nM
IC50, IFNg, cyno whole blood IL-18+IL-12, donor B21411 (f) [5]: 5.1 nM
IC50, IFNg, cyno whole blood IL-18+IL-12, donor B21435 (f) [5]: 10.5 nM
IC50, IFNg, cyno whole blood IL-18+IL-12, donor B21438 (f) [5]: 2.2 nM
IC50, IFNg, cyno whole blood IL-18+IL-12, donor B22017 (f) [5]: 5.7 nM
IC50, IFNg, cyno whole blood IL-18+IL-12, donor B22187 (m) [5]: 3.9 nM
Kd [6]: 0.13 nM
koff [6]: 3.7e-05 s⁻¹
kon [6]: 290000 M⁻¹ s⁻¹
Kd [7]: 0.5 nM
koff [7]: 0.00014 s⁻¹
kon [7]: 290000 M⁻¹ s⁻¹
B2: P20-V1 (antibody, human IgG1, kappa, V domains shown)
VH: QVQLQESGPGLVKPSETLSLTCTVSGGSINNYYWSWIRQPPGKGLEWIGYIFYSGTTNYNPSLKSRVTISVDTSKNQFSLKLSSVTAADTAVYYCARDVGIAARNSYYYVMDVWGQGTTVTVSS
VL: AIQLTQSPSSLSASVGDRVTITCRASQGISSALAWYQQKPGKAPKFLIYEASSLESGVPSRFSGSGSGTDFTLTISSLQPEDFATYYCQQFNSYPITFGQGTRLEIKR
notes: Variant of P20

Kd [8]: 0.2 nM
koff [8]: 7e-05 s⁻¹
kon [8]: 350000 M⁻¹ s⁻¹
B3: P21 (antibody, human IgG1, kappa, V domains shown)
VH: QVQLQQSGPGLVKPSETLSLTCTVSGGSISNYYWTWIRQPPGKGLEWIGYISDSGSTNYNPSLKSRVTISVDTSKNQFSLKLSSVTAADTAVYYCARETIVVRGFYFYVMDVWGQGTTVTVSS
VL: B2 VL with K39R, F46L, E50D, S53N, L54W, I96W, R103K, L104V
notes: Human IgG
